{"source": "paper PMC3145792", "target": "SECRET domain (smallpox virus-encoded chemokine receptor domain) of the vTNFR CrmD encoded by ectrom (ectromelia virus)", "assay": "crystal structure"}
{"substance": "chemokine domain of human CX3CL1 (residues 1-76) (from UniProt P78423 25-100) (domain or fragment)", "values": [{"measurement": "stoichiometry N", "result": 1}]}
